Laboratory results from PMC7737771, “In‐depth interrogation of protein thermal unfolding data with MoltenProt” (Protein Science : A Publication of the Protein Society, 2020).

B1: α‐actinin‐2 rod domain (domain or fragment, UniProt P35609 274-746, looked up)
chain: AVNQENERLMEEYERLASELLEWIRRTIPWLENRTPEKTMQAMQKKLEDFRDYRRKHKPPKVQEKCQLEINFNTLQTKLRISNRPAFMPSEGKMVSDIAGAWQRLEQAEKGYEEWLLNEIRRLERLEHLAEKFRQKASTHETWAYGKEQILLQKDYESASLTEVRALLRKHEAFESDLAAHQDRVEQIAAIAQELNELDYHDAVNVNDRCQKICDQWDRLGTLTQKRREALERMEKLLETIDQLHLEFAKRAAPFNNWMEGAMEDLQDMFIVHSIEEIQSLITAHEQFKATLPEADGERQSIMAIQNEVEKVIQSYNIRISSSNPYSTVTMDELRTKWDKVKQLVPIRDQSLQEELARQHANERLRRQFAAQANAIGPWIQNKMEEIARSSIQITGALEDQMNQLKQYEHNIINYKNNIDKLEGDHQLIQEALVFDNKHTNYTMEHIRVGWELLLTTIARTINEVETQILTRD
notes: α-actinin-2, rod domain, residues 274-746; Detailed purification protocols are to be published elsewhere (Mlynek et al., in preparation); PDB 4D1E is the longer α-actinin-2 dimer, of which the rod domain is a stretch; also called rod domain of α‐actinin‐2

Tests used:
α‐actinin‐2 rod domain [1] = target: B1; experiment: SEC-MALS; Superdex‐200 10/300 Increase; 20 mM Tris–HCl pH 7.5, 100 mM NaCl, 50 mM arginine, 50 mM glutamic acid, 0.5 mM PMSF, 1 mM EDTA, 1 mM β‐mercaptoethanol; 100 μl injected at 2-4 mg/ml; 20°C; 0.5 ml/min; details: both partners purified
α‐actinin‐2 rod domain [2] = target: B1; experiment: cell-based or functional assay
[3] = target: the molecule itself; experiment: SEC-MALS; Superdex‐200 10/300 Increase; 20 mM Tris–HCl pH 7.5, 100 mM NaCl, 50 mM arginine, 50 mM glutamic acid, 0.5 mM PMSF, 1 mM EDTA, 1 mM β‐mercaptoethanol; 100 μl injected at 2-4 mg/ml; 20°C; 0.5 ml/min

Binder	stoichiometry N (α‐actinin‐2 rod domain [1])	ΔGu°′ of the complex against ΔGu°′ of the rod domain alone, thermal unfolding (NanoDSF) (α‐actinin‐2 rod domain [2]) [fold]	stoichiometry N [3]
Δ91‐FATZ‐1 (domain or fragment, UniProt Q9NP98 92-299, looked up, FATZ-1 (calsarcin-2/myozenin-1) with a deletion of the 91 N-terminal residues; Detailed purification protocols are to be published elsewhere (Mlynek et al., in preparation); also called FATZ‐1 lacking the first 91 residues; calsarcin‐2) PTVGGQLGTAGQGFSYSKSNGRGGSQAGGSGSAGQYGSDQQHHLGSGSGAGGTGGPAGQAGRGGAAGTAGVGETGSGDQAGGEGKHITVFKTYISPWERAMGVDPQQKMELGIDLLAYGAKAELPKYKSFNRTAMPYGGYEKASKRMTFQMPKFDLGPLLSEPLVLYNQNLSNRPSFNRTPIPWLSSGEPVDYNVDIGIPLDGETEEL	2 Δ91‐FATZ‐1 molecules per rod domain dimer	~2	
B1			2
